Values joined by “and” are separate entries in the source; they are usually repeats but may differ in a detail not shown here. Equal values may be shown once. Read-outs that look alike come from different tables or passages of the source.
Key:
mouse serum albumin [1] = target: T1, mouse serum albumin (mouse, UniProt P07724 25-608); experiment: SPR
T1 construct: mature; Bought purified serum albumin; also called MSA; Mouse albumin
Procedure: (§1) For analysis at pH 7.0, 6.0, 5.5 and 5.0, a running buffer of 40 mM citric acid, 80 mM sodium phosphate 50 mM NaCl, 3 mM EDTA, 0.05% v/v P20 was used. The required pH was achieved by altering the ratio of citric acid to sodium phosphate. All experiments were performed at 25° C. The antibody samples were captured to the sensor chip surface using either a human F(ab′)₂-specific or human Fc-specific goat Fab (Jackson ImmunoResearch). Covalent immobilisation of the capture antibody was achieved by standard amine coupling chemistry to a level of 6000-7000 response units (RU).
(§2) Each assay cycle consisted of firstly capturing the antibody sample using a 1 min injection, before an association phase consisting of a 3 min injection of albumin, after which dissociation was monitored. After each cycle, the capture surface was regenerated with two 1 min injections of 40 mM HCl followed by 30 s of 5 mM NaOH. The flow rates used were 10 μl/min for capture, 30 μl/min for both the association and dissociation phases, and 10 μl/min for regeneration. A blank flow-cell was used for reference subtraction and buffer-blank injections were included to subtract instrument noise and drift.

rat serum albumin [2] = target: T2, rat serum albumin (rat, UniProt P02770 25-608); experiment: SPR
T2 construct: mature; Bought purified serum albumin; also called RSA; Rat albumin
Procedure: as §1, §2

rabbit serum albumin [3] = target: T3, rabbit serum albumin (rabbit, UniProt P49065 25-608); experiment: SPR
T3 construct: mature; Bought purified serum albumin; also called RbSA; Rabbit albumin
Procedure: as §1, §2

human serum albumin [4] = target: T4, human serum albumin (human, UniProt P02768 25-609); experiment: SPR at pH 5.0
T4 construct: mature; Bought purified serum albumin; also called HSA; Human albumin
Procedure: as §1, §2

human serum albumin [5] = target: T4, human serum albumin; experiment: SPR at pH 5.5
human serum albumin [6] = target: T4, human serum albumin; experiment: SPR at pH 6.0
Procedure: as §1, §2

human serum albumin [7] = target: T4, human serum albumin; experiment: SPR at pH 7.0
Procedure: as §1, §2

human serum albumin [8] = target: T4, human serum albumin; experiment: SPR, Fab captured, HSA
Procedure: as §1, §2

human serum albumin [9] = target: T4, human serum albumin; experiment: SPR, Fab captured, albumin titrated
Procedure: as §1, §2

mouse serum albumin [10] = target: T1, mouse serum albumin; experiment: SPR, Fab captured, albumin titrated
Procedure: as §1, §2

rat serum albumin [11] = target: T2, rat serum albumin; experiment: SPR, Fab captured, albumin titrated
Procedure: as §1, §2

cynomolgus serum albumin = target: T5, cynomolgus serum albumin (cynomolgus, UniProt A2V9Z4 25-608); experiment: SPR, Fab captured, albumin titrated
T5 construct: mature; Bought purified serum albumin; also called CSA; Cynomolgus albumin
Procedure: as §1, §2

rabbit serum albumin [12] = target: T3, rabbit serum albumin; experiment: SPR, Fab captured, albumin titrated
Procedure: as §1, §2

bovine serum albumin = target: T6, bovine serum albumin (bovine, UniProt P02769 25-607); experiment: SPR, Fab captured, albumin titrated
T6 construct: mature; Bought purified serum albumin; also called BSA; Bovine albumin
Procedure: as §1, §2

human serum albumin [13] = target: T4, human serum albumin; experiment: SPR, Fab captured, albumin titrated; remark: listed apart in the source
Procedure: as §1, §2

mouse serum albumin [14] = target: T1, mouse serum albumin; experiment: SPR, Fab captured, albumin titrated; remark: listed apart in the source
Procedure: as §1, §2

human serum albumin [15] = target: T4, human serum albumin; experiment: SPR, Fab captured; albumin taken as HSA
Procedure: as §2

human serum albumin [16] = target: T4, human serum albumin; experiment: SPR, Fab captured; albumin taken as HSA; remark: listed apart in the source
Procedure: as §2

human serum albumin [17] = target: T4, human serum albumin; experiment: SPR, Fab captured; albumin taken as HSA; remark: listed apart in the source
Procedure: as §2

B1: CA645 gL4gH5 Fab (Fab, V domains shown)
VH: EVQLLESGGGLVQPGGSLRLSCAVSGIDLSNYAINWVRQAPGKGLEWIGIIWASGTTFYATWAKGRFTISRDNSKNTVYLQMNSLRAEDTAVYYCARTVPGYSTAPYFDLWGQGTLVTVSS
VL: DIQMTQSPSSVSASVGDRVTITCQSSPSVWSNFLSWYQQKPGKAPKLLIYEASKLTSGVPSRFSGSGSGTDFTLTISSLQPEDFATYYCGGGYSSISDTTFGGGTKVEIK
notes: Humanized Fab: human gamma1 CH1, human kappa constant region (Km3); parent of all mutants; also called CA645 Fab; Fab_645
Mouse serum albumin [1]
  fold weaker affinity for MSA than for HSA: 1.2 fold
Rat serum albumin [2]
  fold lower affinity for RSA than for HSA: ~10 fold
Rabbit serum albumin [3]
  fold reduction in association rate for RbSA against HSA: 18 fold
Human serum albumin [4]
  Kd: 7.1 nM
Human serum albumin [5]
  Kd: 10.7 nM
Human serum albumin [6]
  Kd: 12.5 nM
Human serum albumin [7]
  Kd: 13.3 nM
Human serum albumin [8]
  Kd: 1.23 nM
  koff: 0.000172 s⁻¹
  kon: 139000 M⁻¹ s⁻¹
Human serum albumin [9]
  Kd: 4.6 nM
  koff: 0.00041 s⁻¹
  kon: 90000 M⁻¹ s⁻¹
Mouse serum albumin [10]
  Kd: 7.1 nM
  koff: 0.00034 s⁻¹
  kon: 48000 M⁻¹ s⁻¹
Rat serum albumin [11]
  Kd: 54 nM
  koff: 0.0013 s⁻¹
  kon: 24000 M⁻¹ s⁻¹
Cynomolgus serum albumin
  Kd: 3.3 nM
  koff: 0.00035 s⁻¹
  kon: 100000 M⁻¹ s⁻¹
Rabbit serum albumin [12]
  Kd: 162 nM
  koff: 0.00029 s⁻¹
  kon: 2000 M⁻¹ s⁻¹
Bovine serum albumin
  binding result: no binding
Human serum albumin [13]
  Kd: 1.8 nM
  koff: 0.0004 s⁻¹
  kon: 220000 M⁻¹ s⁻¹
Mouse serum albumin [14]
  Kd: 2.2 nM
  koff: 0.00068 s⁻¹
  kon: 310000 M⁻¹ s⁻¹
Human serum albumin [15]
  Kd: 2.14 nM and 2.51 nM
  koff: 0.000123 s⁻¹ and 0.00014 s⁻¹
  kon: 57500 M⁻¹ s⁻¹ and 56000 M⁻¹ s⁻¹
Human serum albumin [16]
  Kd: 2.72 nM and 2.7 nM
  koff: 0.000161 s⁻¹ and 0.000158 s⁻¹
  kon: 59100 M⁻¹ s⁻¹ and 58600 M⁻¹ s⁻¹
Human serum albumin [17]
  Kd: 2.97 nM and 3.8 nM
  koff: 0.000167 s⁻¹ and 0.000211 s⁻¹
  kon: 56200 M⁻¹ s⁻¹ and 55700 M⁻¹ s⁻¹
